From patent US20030176331A1

Target: high molecular weight glycoprotein gp240 on melanoma cells (human) (UniProt Q6UVK1)
Test: cell-based or functional assay

Sequence of UniProt Q6UVK1 (Q6UVK1 30-2322): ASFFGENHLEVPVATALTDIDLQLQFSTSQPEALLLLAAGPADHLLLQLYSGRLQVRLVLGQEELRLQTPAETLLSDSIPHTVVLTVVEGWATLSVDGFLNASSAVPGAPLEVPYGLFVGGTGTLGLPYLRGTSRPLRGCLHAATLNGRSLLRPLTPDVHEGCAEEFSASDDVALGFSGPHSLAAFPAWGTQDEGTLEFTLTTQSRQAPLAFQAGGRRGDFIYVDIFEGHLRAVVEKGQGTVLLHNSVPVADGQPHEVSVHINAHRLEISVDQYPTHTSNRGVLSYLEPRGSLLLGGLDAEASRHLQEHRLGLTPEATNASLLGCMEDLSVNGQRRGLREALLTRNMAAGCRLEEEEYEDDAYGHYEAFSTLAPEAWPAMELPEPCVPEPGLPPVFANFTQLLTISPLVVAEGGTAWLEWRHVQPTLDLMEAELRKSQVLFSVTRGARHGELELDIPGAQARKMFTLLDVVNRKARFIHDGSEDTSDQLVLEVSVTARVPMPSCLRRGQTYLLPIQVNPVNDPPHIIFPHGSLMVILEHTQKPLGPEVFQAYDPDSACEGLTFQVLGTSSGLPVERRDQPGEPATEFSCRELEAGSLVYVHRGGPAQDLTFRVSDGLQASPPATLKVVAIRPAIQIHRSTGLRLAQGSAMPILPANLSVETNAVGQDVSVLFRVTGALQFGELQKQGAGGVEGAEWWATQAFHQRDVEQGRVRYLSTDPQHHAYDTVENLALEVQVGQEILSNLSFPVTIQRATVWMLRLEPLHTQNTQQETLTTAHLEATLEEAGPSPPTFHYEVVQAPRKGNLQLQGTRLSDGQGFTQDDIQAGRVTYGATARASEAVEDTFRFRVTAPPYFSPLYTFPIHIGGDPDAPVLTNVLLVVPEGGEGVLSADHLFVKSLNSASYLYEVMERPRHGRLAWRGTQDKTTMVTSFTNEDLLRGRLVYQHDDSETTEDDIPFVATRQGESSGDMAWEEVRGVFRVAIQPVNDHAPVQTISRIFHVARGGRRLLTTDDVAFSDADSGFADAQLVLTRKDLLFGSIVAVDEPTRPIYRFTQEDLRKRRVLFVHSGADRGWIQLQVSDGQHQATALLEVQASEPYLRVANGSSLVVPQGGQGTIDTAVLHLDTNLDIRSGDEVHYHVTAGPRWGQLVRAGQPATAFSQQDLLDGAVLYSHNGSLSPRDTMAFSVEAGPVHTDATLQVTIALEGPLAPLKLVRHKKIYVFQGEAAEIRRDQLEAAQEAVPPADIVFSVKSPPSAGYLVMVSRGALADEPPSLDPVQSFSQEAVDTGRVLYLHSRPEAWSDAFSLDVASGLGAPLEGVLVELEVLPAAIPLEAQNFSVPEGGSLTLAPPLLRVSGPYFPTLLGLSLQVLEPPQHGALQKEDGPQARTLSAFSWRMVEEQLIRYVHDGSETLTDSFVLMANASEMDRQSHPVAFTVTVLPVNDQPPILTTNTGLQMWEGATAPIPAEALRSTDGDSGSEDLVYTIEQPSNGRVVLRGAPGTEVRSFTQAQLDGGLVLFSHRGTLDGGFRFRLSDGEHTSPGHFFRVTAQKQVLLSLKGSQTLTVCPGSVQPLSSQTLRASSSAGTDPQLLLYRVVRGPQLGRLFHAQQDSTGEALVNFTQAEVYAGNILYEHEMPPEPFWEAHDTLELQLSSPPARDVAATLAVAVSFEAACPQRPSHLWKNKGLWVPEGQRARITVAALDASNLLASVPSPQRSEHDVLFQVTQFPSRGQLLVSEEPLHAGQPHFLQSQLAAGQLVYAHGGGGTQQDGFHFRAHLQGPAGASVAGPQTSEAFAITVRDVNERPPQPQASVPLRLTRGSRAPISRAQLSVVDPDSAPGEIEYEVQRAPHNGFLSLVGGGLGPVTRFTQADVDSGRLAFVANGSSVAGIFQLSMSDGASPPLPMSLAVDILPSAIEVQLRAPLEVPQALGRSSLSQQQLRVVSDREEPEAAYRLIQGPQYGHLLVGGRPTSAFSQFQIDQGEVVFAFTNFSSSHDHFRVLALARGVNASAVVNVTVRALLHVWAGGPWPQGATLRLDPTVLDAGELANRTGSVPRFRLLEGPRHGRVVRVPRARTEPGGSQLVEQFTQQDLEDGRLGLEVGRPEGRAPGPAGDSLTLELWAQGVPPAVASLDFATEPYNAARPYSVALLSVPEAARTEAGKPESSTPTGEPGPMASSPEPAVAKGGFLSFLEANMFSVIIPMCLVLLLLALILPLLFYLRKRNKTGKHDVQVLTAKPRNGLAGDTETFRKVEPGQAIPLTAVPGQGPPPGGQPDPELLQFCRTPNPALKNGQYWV

Substance: scfvMEL/rGel fusion construct
- IC50, 72 h in vitro cytotoxicity on antigen-positive A375 human melanoma cells: 8 nM

Substance: IgG ZME-018-gelonin chemical conjugate
- IC50, 72 h in vitro cytotoxicity on antigen-positive A375 human melanoma cells: 8 nM
